Data published in publication doi:10.1101/2022.11.03.515106 (bioRxiv, 2022).

T1: GFP-DBR1 (human, UniProt Q9UK59 1-544)
T1 sequence: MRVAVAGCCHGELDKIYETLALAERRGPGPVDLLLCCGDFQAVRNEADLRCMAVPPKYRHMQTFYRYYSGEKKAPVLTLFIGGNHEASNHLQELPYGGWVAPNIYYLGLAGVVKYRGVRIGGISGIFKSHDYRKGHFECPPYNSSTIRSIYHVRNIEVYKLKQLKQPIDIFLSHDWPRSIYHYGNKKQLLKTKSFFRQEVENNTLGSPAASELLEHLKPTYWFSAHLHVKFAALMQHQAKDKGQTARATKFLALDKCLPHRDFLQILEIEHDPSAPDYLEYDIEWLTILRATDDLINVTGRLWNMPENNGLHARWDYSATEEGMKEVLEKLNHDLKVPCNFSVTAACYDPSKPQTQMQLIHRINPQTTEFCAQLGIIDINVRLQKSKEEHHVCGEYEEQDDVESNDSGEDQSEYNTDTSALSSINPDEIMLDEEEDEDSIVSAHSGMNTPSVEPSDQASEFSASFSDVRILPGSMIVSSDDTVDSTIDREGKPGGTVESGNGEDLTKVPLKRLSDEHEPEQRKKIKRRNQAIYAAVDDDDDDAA

T2: His-Flag-DBR1 (human, UniProt Q9UK59 1-544)
T2 sequence (looked up): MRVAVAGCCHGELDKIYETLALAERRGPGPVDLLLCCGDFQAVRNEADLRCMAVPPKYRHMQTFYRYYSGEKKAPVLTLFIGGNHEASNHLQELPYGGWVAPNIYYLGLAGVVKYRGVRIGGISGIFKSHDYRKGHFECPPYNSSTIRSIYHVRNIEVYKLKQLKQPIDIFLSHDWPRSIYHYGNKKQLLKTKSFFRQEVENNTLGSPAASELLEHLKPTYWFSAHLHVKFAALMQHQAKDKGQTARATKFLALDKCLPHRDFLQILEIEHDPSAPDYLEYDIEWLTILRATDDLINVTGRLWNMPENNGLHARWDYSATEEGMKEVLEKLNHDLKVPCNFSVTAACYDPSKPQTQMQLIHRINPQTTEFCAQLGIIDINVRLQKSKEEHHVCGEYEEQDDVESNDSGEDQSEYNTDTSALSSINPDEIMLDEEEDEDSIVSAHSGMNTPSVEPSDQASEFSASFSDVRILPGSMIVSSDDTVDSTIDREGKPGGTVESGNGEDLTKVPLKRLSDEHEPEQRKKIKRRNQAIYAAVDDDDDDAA


Tests used:
GFP-DBR1 = target: T1, GFP-DBR1; test: pull-down
His-Flag-DBR1 = target: T2, His-Flag-DBR1; test: pull-down

| binding result (GFP-DBR1) | binding result (His-Flag-DBR1) | Binder |
| --- | --- | --- |
| binds |  | TTDN1-mCherry (natural protein, human, UniProt Q8TAP9 1-179, looked up) MQRQNFRPPTPPYPGPGGGGWGSGSSFRGTPGGGGPRPPSPRDGYGSPHHTPPYGPRSRPYGSSHSPRHGGSFPGGRFGSPSPGGYPGSYSRSPAGSQQQFGYSPGQQQTHPQGSPRTSTPFGSGRVREKRMSNELENYFKPSMLEDPWAGLEPVSVVDISQQYSNTQTFTGKKGRYFC |
|  | binds | GST-TTDN1 (natural protein, human, UniProt Q8TAP9 1-179, looked up) MQRQNFRPPTPPYPGPGGGGWGSGSSFRGTPGGGGPRPPSPRDGYGSPHHTPPYGPRSRPYGSSHSPRHGGSFPGGRFGSPSPGGYPGSYSRSPAGSQQQFGYSPGQQQTHPQGSPRTSTPFGSGRVREKRMSNELENYFKPSMLEDPWAGLEPVSVVDISQQYSNTQTFTGKKGRYFC |
